Experimental data reported in patent EP4759829A1 (The University of Tokyo, dated 2025).
Values joined by “and” are separate entries in the source; they are usually repeats but may differ in a detail not shown here. Equal values may be shown once. One block for each binder: values may come before it.

Tests used:
[1] = target: T1, human HVEM on cells (HEK293T cells expressing HVEM; Mesenchymal subtype GBM cells) (human, UniProt Q92956 39-283); test: cell-based or functional assay
T1 sequence (looked up): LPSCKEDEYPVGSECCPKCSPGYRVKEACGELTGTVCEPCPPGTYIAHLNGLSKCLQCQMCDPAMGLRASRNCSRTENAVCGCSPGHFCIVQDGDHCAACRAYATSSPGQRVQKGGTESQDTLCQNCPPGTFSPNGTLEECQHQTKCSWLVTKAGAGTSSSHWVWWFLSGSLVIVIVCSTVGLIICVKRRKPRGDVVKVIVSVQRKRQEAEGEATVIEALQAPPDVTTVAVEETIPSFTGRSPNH

[2] = target: T2, human HVEM extracellular domain recombinant protein (Sino Biological Japan Inc. 10334-H08H) (human, UniProt Q92956 39-202); test: SPR (BIAcore T200), antibody captured by anti-human IgG on CM5 chip, HVEM extracellular domain as analyte
T2 construct: extracellular domain; Bought protein
T2 sequence (looked up): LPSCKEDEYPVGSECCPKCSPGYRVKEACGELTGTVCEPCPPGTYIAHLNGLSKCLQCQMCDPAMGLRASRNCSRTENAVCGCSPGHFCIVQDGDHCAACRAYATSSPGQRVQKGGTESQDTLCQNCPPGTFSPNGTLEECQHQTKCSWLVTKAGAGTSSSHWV

[3] = target: T1, human HVEM on cells (HEK293T cells …); test: cell ELISA on fixed HEK293T cells expressing HVEM, anti-His-HRP detection
[4] = target: T2, human HVEM extracellular domain …; test: SPR (BIAcore T200), biotinylated VHH-3-Avitag on SA chip, HVEM extracellular domain as analyte

B1: humanized anti-human HVEM antibody (HVR80) conjugated with monomethyl auristatin E (MMAE) (other)
chain: EVQLVESGGGLVQPGGSLRLSCAASGSIGSIHRWDWYRQAPGKQREWVATLNSEGGPTYADSVEGRFTISRDNSKNTLYLQMNSLRPEDTAVYRCAARTVPFEYWGQGTLVTVSSGPPCPPCPAPEFLGGPSVFLFPPKPKDTLMISRTPEVTCVVVDVSQEDPEVQFNWYVDGVEVHNAKTKPREEQFNSTYRVVSVLTVLHQDWLNGKEYKCKVSNKGLPSSIEKTISKAKGQPREPQVYTLPPSQEEMTKNQVSLTCLVKGFYPSDIAVEWESNGQPENNYKTTPPVLDSDGSFFLYSRLTVDKSRWQEGNVFSCSVMHEALHNHYTQKSLSLSLGK
modifications: conjugated with monomethyl auristatin E (MMAE) using Glyclick ADC MMAE (Genovis AB); site not stated
- IC50 of cell viability of HEK293T-HVEM cells, 3 days [1]: 70 ng/ml and 0.9 nM

B2: humanized anti-human HVEM antibody (HVR80) conjugated with PNU (other)
chain: EVQLVESGGGLVQPGGSLRLSCAASGSIGSIHRWDWYRQAPGKQREWVATLNSEGGPTYADSVEGRFTISRDNSKNTLYLQMNSLRPEDTAVYRCAARTVPFEYWGQGTLVTVSSGPPCPPCPAPEFLGGPSVFLFPPKPKDTLMISRTPEVTCVVVDVSQEDPEVQFNWYVDGVEVHNAKTKPREEQFNSTYRVVSVLTVLHQDWLNGKEYKCKVSNKGLPSSIEKTISKAKGQPREPQVYTLPPSQEEMTKNQVSLTCLVKGFYPSDIAVEWESNGQPENNYKTTPPVLDSDGSFFLYSRLTVDKSRWQEGNVFSCSVMHEALHNHYTQKSLSLSLGK
modifications: conjugated with PNU using Glyclick ADC PNU (Genovis AB); site not stated
- IC50 of cell viability of HEK293T-HVEM cells, 3 days [1]: 30 ng/ml and 0.4 nM

B3: humanized anti-human HVEM antibody (HVR80) (Fc fusion)
chain: EVQLVESGGGLVQPGGSLRLSCAASGSIGSIHRWDWYRQAPGKQREWVATLNSEGGPTYADSVEGRFTISRDNSKNTLYLQMNSLRPEDTAVYRCAARTVPFEYWGQGTLVTVSSGPPCPPCPAPEFLGGPSVFLFPPKPKDTLMISRTPEVTCVVVDVSQEDPEVQFNWYVDGVEVHNAKTKPREEQFNSTYRVVSVLTVLHQDWLNGKEYKCKVSNKGLPSSIEKTISKAKGQPREPQVYTLPPSQEEMTKNQVSLTCLVKGFYPSDIAVEWESNGQPENNYKTTPPVLDSDGSFFLYSRLTVDKSRWQEGNVFSCSVMHEALHNHYTQKSLSLSLGK
notes: Printed molecular weight about 77,000
- Kd [2]: 59 nM

The remaining lines, values ahead:

- EC50 [3]: 1.94 nM
B4: alpaca anti-human HVEM antibody (VHH-3), 6×His-tagged (VHH)
VHH: QVQLVESGGGSVQPGGSLRLSCAASGSIGSIHRWDWYRLCPGKQREWVATLNSEGGPTYADSVEGRFTISRDNAKNMVYLQMNSLKPEDTAVYRCSARTVPFEYWGRGTQVTVSS
notes: also called 6×His-tagged VHH-3 antibody; not shown: 6×His tag

- Kd [4]: 19 nM
B5: alpaca anti-human HVEM antibody (VHH-3) tagged C-terminally with biotinylated Avitag (VHH)
VHH: QVQLVESGGGSVQPGGSLRLSCAASGSIGSIHRWDWYRLCPGKQREWVATLNSEGGPTYADSVEGRFTISRDNAKNMVYLQMNSLKPEDTAVYRCSARTVPFEYWGRGTQVTVSS
modifications: biotinylated Avitag at the C-terminus
notes: not shown: C-terminal Avitag (biotinylated)
